Measured values published in FireProtDB (doi:10.1016/0022-2836(92)90387-y).

Conditions: Bacillus amyloliquefaciens; pH 6.3; 25 °C; Urea; Fluorescence; MES 50 mM; reversible: yes; whole UniProt chain shown

B1: Ribonuclease wild type, P00648 (protein)
chain: MMKMEGIALKKRLSWISVCLLVLVSAAGMLFSTAAKTETSSHKAHTEAQVINTFDGVADYLQTYHKLPDNYITKSEAQALGWVASKGNLADVAPGKSIGGDIFSNREGKLPGKSGRTWREADINYTSGFRNSDRILYSSDWLIYKTTDHYQTFTKIR
unfolding free energy: 8.83 kcal/mol
